# Experimental data taken from publication PMC7701066.
# Assays:
# [1] = molecular target: FLAG-tagged wild-type central Reelin fragment (Reelin repeats 3–6), Fc removed (UniProt Q60841); assay: SEC; Superose 6 Increase 10/300 GL, A280 traces of heterodimer, FLAG-WT homodimer and His6-K2467A homodimer
# [2] = molecular target: His6-tagged K2467A mutant central Reelin fragment (Reelin repeats 3–6), Fc removed (UniProt Q60841); assay: as above
# [3] = molecular target: Fc-fused Reelin heterodimer (FLAG-WT / His6-K2467A central fragment, Fc retained) (UniProt Q60841); assay: BLI; BLItz; Fc-fused heterodimer on a Protein A biosensor; dilution series (11 concentrations) of ecto-VLDLR; 20 mM Hepes pH 7.4, 150 mM NaCl, 1 mM CaCl2, 0.2% Tween20, 0.1% BSA; association 45 s, dissociation 60 s without CaCl2 and with 1 mM EDTA; maximum responses fitted to one site specific binding; triplicate
substance,measurement,setting,value
"FLAG-tagged wild-type central Reelin fragment (Reelin repeats 3–6), Fc removed (from UniProt Q60841 27-3461) (domain or fragment)",stoichiometry N,[1],2
"His6-tagged K2467A mutant central Reelin fragment (Reelin repeats 3–6), Fc removed (from UniProt Q60841 27-3461) (domain or fragment)",stoichiometry N,[2],2
purified extracellular domain of VLDLR (very-low density lipoprotein receptor) (from UniProt P98155 28-797),Kd,[3],129 nM
